In article PMC5620161, “Remarkably similar CTLA-4 binding properties of therapeutic ipilimumab and tremelimumab antibodies” (Oncotarget, 2017):

Target: T1, ectodomain of human CTLA-4 (aa 31-161) (human, UniProt P16410-1)
T1 construct: CTLA-4, human, ectodomain, residues 31-161 of UniProt P16410-1; Homodimer held by a disulfide bond (non-reducing SDS-PAGE and crystal structure); Cloned into pET-21a; also called extracellular domain of CTLA-4
Experiment: SPR; BIAcore T100, CM5 chip, CTLA-4 immobilised (5 μg/ml), scFv flowed at 6.25-200 nM, room temperature, HBS-EP (150 mM NaCl, 10 mM HEPES pH 7.4, 0.005% Tween-20), 1:1 Langmuir model
Details: both partners purified

T1 sequence (P16410 31-161): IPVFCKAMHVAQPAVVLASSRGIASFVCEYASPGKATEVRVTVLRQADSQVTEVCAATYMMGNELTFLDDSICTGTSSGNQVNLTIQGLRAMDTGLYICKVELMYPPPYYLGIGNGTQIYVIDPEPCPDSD

B1: scFv fragment of tremelimumab (scFv, V domains shown)
VH: QVQLVESGGGVVQPGRSLRLSCAASGFTFSSYGMHWVRQAPGKGLEWVAVIWYDGSNKYYADSVKGRFTISRDNSKNTLYLQMNSLRAEDTAVYYCARDPRGATLYYYYYGMDVWGQGTTVTVSS
VL: DIQMTQSPSSLSASVGDRVTITCRASQSINSYLDWYQQKPGKAPKLLIYAASSLQSGVPSRFSGSGSGTDFTLTISSLQPEDFATYYCQQYYSTPFTFGPGTKVEIK
notes: VL of tremelimumab (IGKV1-39 framework); the Fab of tremelimumab is in PDB 5GGV; linker, printed as GG(GGSGG)3GG; VH of tremelimumab (IGHV3-33 framework); Built as VL-GG(GGSGG)3GG-VH in pET21a; The parent antibody is an IgG2; only the scFv was made here; also called tremelimumab-scFv; CP-675,206
- Kd: 5.89 nM
- koff: 0.0018 s⁻¹
- kon: 308000 M⁻¹ s⁻¹
